The text below walks through data of paper PMC7522650, “An Alternative Binding Mode of IGHV3-53 Antibodies to the SARS-CoV-2 Receptor Binding Domain” (Cell Reports, 2020).

The experiment deals with SARS-CoV-2 spike (S) protein receptor-binding domain (RBD), residues 319-541 (SARS-CoV-2, Wuhan-Hu-1 (GenBank …, UniProt P0DTC2)). The experiment is described as follows: BLI. The settings on record: both partners purified.

B1: COVA2-04 Fab (Fab, V domains shown)
VH: QVQLVETGGGLIQPGGSLRLSCAASGFTVSSNYMSWVRQAPGKGLEWVSVIYSGGSTFYADSVKGRFTISRDNSKNTLYLQMNSLRAEDTAVYYCARDLERAGGMDVWGQGTMVTVSS
VL: not shown
Molecule B1 came in with a Kd of 40 nM.

B2: COVA2-39 Fab (Fab, V domains shown)
VH: QVQLVETGGGLIQPGGSLRLSCAASGFTVSSNYMSWVRQAPGKGLEWVSVIYTGGTTYYADSVKGRFTISRDNSKNTLYLQMNSLRAEDTAVYYCARAHVDTAMVESGAFDIWGQGTRVTVSS
VL: QSALTQPASVSGSPGQSITISCTGTSSDVGSYNLVSWYQQHPGKAPKLMIYEVTKRPSGVSNRFSGSKSGNTASLTISGLQAEDEADYYCCSYAGSSTWVFGGGTKLTVL
B2 returned a Kd of 21 nM.

B3: COVA2-39 with the 53TGGT56 motif reverted to the germline-encoded 53SGGS56 motif (Fab, V domains shown)
VH: QVQLVETGGGLIQPGGSLRLSCAASGFTVSSNYMSWVRQAPGKGLEWVSVIYSGGSTYYADSVKGRFTISRDNSKNTLYLQMNSLRAEDTAVYYCARAHVDTAMVESGAFDIWGQGTRVTVSS
VL: QSALTQPASVSGSPGQSITISCTGTSSDVGSYNLVSWYQQHPGKAPKLMIYEVTKRPSGVSNRFSGSKSGNTASLTISGLQAEDEADYYCCSYAGSSTWVFGGGTKLTVL
Turning to B3, the “fold decrease in other” value is not below 50 fold.
